From patent US9422369 (QUEEN MARY AND WESTFIELD COLLEGE, dated 2016) come the findings set out here.

Ends that are not written are not given here.

This assay has as its target T1, peptide antigen EDGIKRIQDDC-biotin (from AT1-receptor N-terminal region) (rat (sequence also found in human and …)).
T1 construct: Coated on Maxisorp plates for the ELISA; also called antigenic peptide; biotinylated peptide antigen
T1 peptide: EDGIKRIQDDC-biotin
Description: ELISA, coated EDGIKRIQDDC-biotin, anti-His-tag HRP detection; reference is the murine scFv. Here is the method: IgM for comparative binding studies was purified as previously described for cellular invasion studies. The extinction coefficient used for IgM was 1.18 (Johnstone A, Thorpe R. *Immunochemistry in practice*. 2nd ed. Oxford: Blackwell Scientific Publications (1987)). Testing of Antigen Binding Using ELISA Enzyme-linked immunosorbant assays (ELISAs) were carried out in Maxisorp 96-well plates coated with Peptide antigen […]-biotin (SEQ ID NO: 14) (2-8 ug/ml in carbonate buffer pH 9.6) overnight at 4 or 37 C. The coated wells were blocked using 1% alkaline soluble casein (Blocking buffer) for 1 h at RT, then washed three times with PBS containing 0.1% v/v Tween 20. ScFv samples diluted between 1:1 to 1:100 in PBS-T were added and incubated for 1 h at RT before washing as before. A secondary HRP-conjugated anti-His-Tag antibody was then added (diluted 1:1000 in blocking buffer) for 1 h at RT. Wells were then washed three times in PBS-T then twice with PBS (without Tween 20). 100 µl of TMB substrate solution was added and colour was allowed to develop for 30 min, at which time 100 µl of 2M sulphuric acid was added to stop the reaction. Absorbance at 450 nm was read on a plate reading spectrophotometer. Protein concentrations were determined using an Eppendorf Biophotometer reading at 280 nm and using an extinction coefficient for the scFv of 1.7 as above.

B1: humanised scFv variant HuCY, His-tagged (scFv, V domains shown)
VH: QVQLVQSGPELVKPGASVKISCKASGYSFTGYNMNWVKQAPGKSLEWIGNIDPYYGGTTYNQKFKGKATLTVDKSSSTAYMQLKSLRSEDTAVYYCAREVDYWGQGTTVTVSS
notes: Resurfaced variant of 12D, changed only in the framework regions; not shown: C-terminal His-tag from the expression vector
Consider B1, for which the “fold binding in ELISA against the murine scFv” value stood at 5 fold.
